For this experiment, the target named is T1, recombinant His6-tagged SPRTN (human, UniProt Q9H040 1-489).
T1 construct: SPRTN metalloprotease, human; The methods of this pull-down are not described; also called purified SPRTN; source: recombinant, purified in house from E. coli
T1 sequence (looked up): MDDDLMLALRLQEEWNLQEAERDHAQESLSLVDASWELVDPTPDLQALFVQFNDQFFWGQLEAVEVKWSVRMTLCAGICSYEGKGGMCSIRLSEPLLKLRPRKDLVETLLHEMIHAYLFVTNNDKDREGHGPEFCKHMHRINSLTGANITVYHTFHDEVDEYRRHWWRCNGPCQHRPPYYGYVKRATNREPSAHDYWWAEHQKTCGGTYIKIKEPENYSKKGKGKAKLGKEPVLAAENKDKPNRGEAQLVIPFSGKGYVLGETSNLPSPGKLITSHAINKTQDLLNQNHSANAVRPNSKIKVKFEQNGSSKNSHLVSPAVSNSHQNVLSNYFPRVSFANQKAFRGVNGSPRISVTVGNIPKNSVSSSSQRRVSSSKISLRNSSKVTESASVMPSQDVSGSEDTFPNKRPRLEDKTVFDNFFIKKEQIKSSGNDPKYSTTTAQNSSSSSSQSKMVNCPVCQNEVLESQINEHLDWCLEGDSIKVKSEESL
Briefly: pull-down; recombinant His6-tagged SPRTN held on Ni-NTA beads, purified CHK1 co-precipitated; immunoblot. The conditions noted are these: both partners purified.

From PMC6637133, “SPRTN protease and checkpoint kinase 1 cross-activation loop safeguards DNA replication” (Nature Communications, 2019) come the findings set out here.

B1: Purified CHK1 (enzyme, human, UniProt O14757 1-476, looked up)
chain: MAVPFVEDWDLVQTLGEGAYGEVQLAVNRVTEEAVAVKIVDMKRAVDCPENIKKEICINKMLNHENVVKFYGHRREGNIQYLFLEYCSGGELFDRIEPDIGMPEPDAQRFFHQLMAGVVYLHGIGITHRDIKPENLLLDERDNLKISDFGLATVFRYNNRERLLNKMCGTLPYVAPELLKRREFHAEPVDVWSCGIVLTAMLAGELPWDQPSDSCQEYSDWKEKKTYLNPWKKIDSAPLALLHKILVENPSARITIPDIKKDRWYNKPLKKGAKRPRVTSGGVSESPSGFSKHIQSNLDFSPVNSASSEENVKYSSSQPEPRTGLSLWDTSPSYIDKLVQGISFSQPTCPDHMLLNSQLLGTPGSSQNPWQRLVKRMTRFFTKLDADKSYQCLKETCEKLGYQWKKSCMNQVTISTTDRRNNKLIFKVNLLEMDDKILVDFRLSKGDGLEFKRHFLKIKGKLIDIVSSQKIWLPAT
notes: checkpoint kinase 1 (CHK1), human
As for B1, the binding result was “binds”.
